Measured values taken from patent publication US7842460.

B1: SENP2 isopeptidase (protein)
chain: DLLELTEDMEKEISNALGHGPQDEILSSAFKLRITRGDIQTLKNYHWLNDEVINFYMNLLVERNKKQGYPALHVFSTFFYPKLKSGGYQAVKRWTKGVNLFEQEIILVPIHRKVHWSLVVIDLRKKCLKYLDSMGQKGHRICEILLQYLQDESKTKRNSDLNLLEWTHHSMKPHEIPQQLNGSDCGMFTCKYADYISRDKPITFTQHQMPLFRKKMVWEILHQQLL
B2: C-terminal His-tagged SUMO protease 1, ULP1 (403-621)p (protein)
chain: LVPELNEKDDDQVQKALASRENTQLMNRDNIEITVRDFKTLAPRRWLNDTIIEFFMKYIEKSTPNTVAFNSFFYTNLSERGYQGVRRWMKRKKTQIDKLDKIFTPINLNQSHWALGIIDLKKKTIGYVDSLSNGPNAMSFAILTDLQKYVMEESKHTIGEDFDLIHLDCPQQPNGYDCGIYVCMNTLYGSADAPLDFDYKDAIRMRRFIAHLILTDALK
B3: Den1, a Nedd8-specific isopeptidase (protein)
chain: MDPVVLSYMDSLLRQSDVSLLDPPSWLNDHIIGFAFEYFANSQFHDCSDHVSFISPEVTQFIKCTSNPAEIAMFLEPLDLPNKRVVFLAINDNSNQAAGGTHWSLLVYLQDKNSFFHYDSHSRSNSVHAKQVAEKLEAFLGRKGDKLAFVEEKAPAQQNSYDCGMYVICNTEALCQNFFRQQTESLLQLLTPAYITKKRGEWKDLITTLAKK

What was measured:
[1] = target: T1, Ubiquitin-PLA2mX fusion, Q9QXX3
T1 chain: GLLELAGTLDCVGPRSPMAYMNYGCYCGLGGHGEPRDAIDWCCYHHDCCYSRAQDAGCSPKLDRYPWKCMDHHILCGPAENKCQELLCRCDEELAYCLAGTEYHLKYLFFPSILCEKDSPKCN

[2] = target: human SUMO3-PLA2mX fusion, P55854
[3] = target: T2, (yeast SUMO) Smt3-PLA2mX fusion, Q9QXX3
T2 chain: T1 chain

[4] = target: T3, SUMO-GPATase fusion protein from pET24-6H-SUMO-GPATase, P0AG16
T3 chain: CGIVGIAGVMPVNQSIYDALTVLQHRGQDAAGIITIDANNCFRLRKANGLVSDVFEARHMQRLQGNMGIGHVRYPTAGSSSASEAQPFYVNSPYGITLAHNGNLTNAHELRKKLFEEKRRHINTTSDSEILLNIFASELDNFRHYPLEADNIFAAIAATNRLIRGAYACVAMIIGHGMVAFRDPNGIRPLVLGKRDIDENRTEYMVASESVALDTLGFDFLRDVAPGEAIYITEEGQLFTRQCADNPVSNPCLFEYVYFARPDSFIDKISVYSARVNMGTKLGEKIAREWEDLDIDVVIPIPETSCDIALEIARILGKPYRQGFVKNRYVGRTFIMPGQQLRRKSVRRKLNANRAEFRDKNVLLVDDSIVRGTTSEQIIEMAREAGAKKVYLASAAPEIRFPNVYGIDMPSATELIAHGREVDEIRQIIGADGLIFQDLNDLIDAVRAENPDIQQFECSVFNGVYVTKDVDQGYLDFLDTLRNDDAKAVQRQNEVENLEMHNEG

[5] = target: T4, Smt3-3Dpol (Mahoney strain) fusion from pET24-6H-SUMO-3Dpol, P03300
T4 chain: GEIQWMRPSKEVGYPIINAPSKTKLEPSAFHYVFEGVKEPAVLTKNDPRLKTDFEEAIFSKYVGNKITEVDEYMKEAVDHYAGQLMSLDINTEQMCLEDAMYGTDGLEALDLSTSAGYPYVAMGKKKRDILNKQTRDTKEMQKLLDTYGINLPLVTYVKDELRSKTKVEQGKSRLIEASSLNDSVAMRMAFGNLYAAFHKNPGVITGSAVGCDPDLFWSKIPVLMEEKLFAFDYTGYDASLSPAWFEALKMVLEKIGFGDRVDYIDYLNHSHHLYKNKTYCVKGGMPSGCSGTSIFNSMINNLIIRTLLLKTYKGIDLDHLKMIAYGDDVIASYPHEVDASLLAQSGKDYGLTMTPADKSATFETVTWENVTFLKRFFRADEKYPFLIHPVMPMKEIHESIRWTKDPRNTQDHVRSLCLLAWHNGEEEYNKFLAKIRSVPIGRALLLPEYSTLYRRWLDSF

[6] = target: Smt3-tryptase (6xHis-SUMO-human tryptase fusion, secreted from Sf9 insect cells) [SUMO: Q12306]
Sequence of Smt3-tryptase (6xHis-SUMO-human tryptase fusion, secreted from Sf9 insect cells) [SUMO: Q12306] (Q12306 whole entry, looked up, the tested form may be a part): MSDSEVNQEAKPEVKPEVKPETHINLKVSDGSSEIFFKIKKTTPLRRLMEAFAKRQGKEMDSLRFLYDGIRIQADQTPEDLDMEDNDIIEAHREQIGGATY

[7] = target: human Nedd8-PLA2mX fusion, Q15843
Sequence of human Nedd8-PLA2mX fusion, Q15843 (Q15843 whole entry, looked up, the tested form may be a part): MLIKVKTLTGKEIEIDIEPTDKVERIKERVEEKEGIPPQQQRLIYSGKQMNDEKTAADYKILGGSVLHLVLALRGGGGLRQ

Protein | cleavage of the fusion by SDS-PAGE [1] | Ratio of PLA2 activity, fusion with isopeptidase over fusion without [2] | cleavage of the fusion by SDS-PAGE (10 ug fusion, 1 ug SENP2) [2] | Ratio of PLA2 activity, fusion with isopeptidase over fusion without [3] | cleavage of the fusion by SDS-PAGE (10 ug fusion, 1 ug Ulp-1, one hour) [3] | GPATase activity by coupled glutamate dehydrogenase assay, absorbance at 363 nm [4] | glutaminase activity of GPATase (coupled GDH assay) [4] | cleavage of the fusion by SDS-PAGE and Coomassie Blue staining [5] | tryptase activity, peptidyl chromogenic substrate, absorption at 410 nm [6] | Ratio of PLA2 activity, fusion with isopeptidase over fusion without [7] | cleavage of the fusion by SDS-PAGE [7]
B1 | The SENP2 enzyme failed to cleave the Ubiqutin-PLA2mX fusion protein | 9.95 | the appropriately sized hSUMO3 (21 kDa) and PLA2mX (14 kDa) bands were observed, indicating complete cleavage of the fusion protein |  |  |  |  |  |  |  | 
B2 | The yeast ULP1 enzyme failed to cleave the Ubiquitin-PLA2mX fusion protein |  |  | 7.04 | complete cleavage of the reporter fusion protein to yield the separate constituents, Smt3 (at 21 kDa) and 14 kDa PLA2mX | there was an increase is absorbance at the OD 363 reading ... In the absence of Ulp1, this increase of absorbance did not occur | at least a 10-fold increase in the glutaminase activity of GPATase | resulted in 100% of cleavage of 3Dpol | augmented tryptase activity was measured |  | 
B3 |  |  |  |  |  |  |  |  |  | 3.38 | the Nedd8-fusion protein became cleaved and 14 kDa PLA2mX and 9 kDa Nedd8 bands appear
